These results are taken from PMC6445123 (Scientific Reports, 2019).

Marks after values point to notes of the source that are not given here.

The target of series [1] is T1, recombinant active Casp6 (Casp6-WT) (Homo sapiens, UniProt P55212, INS179NQTEKLDTNITEVD).
T1 construct: generating mainly large subunit with a linker (LS-L), small subunit (SS), and a minor amount of large subunit (LS); His (C); made in house; host or cells: E. coli BL21(DE3)pLysS
T1 sequence (P55212 24-193 limits assumed): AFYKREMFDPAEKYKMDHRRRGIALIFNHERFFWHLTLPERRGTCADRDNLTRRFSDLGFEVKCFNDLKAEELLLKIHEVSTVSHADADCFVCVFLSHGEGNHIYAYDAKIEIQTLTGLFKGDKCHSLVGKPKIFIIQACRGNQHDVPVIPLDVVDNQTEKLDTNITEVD
T1 sequence (P55212 194-293 limits assumed): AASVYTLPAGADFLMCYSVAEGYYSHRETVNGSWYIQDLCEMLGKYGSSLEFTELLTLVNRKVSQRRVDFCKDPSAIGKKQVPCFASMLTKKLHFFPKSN
Kind of series: Fluorescence-based Ac-VEID-AFC cleavage assay (Casp6 activity, IC50 determination). In kind it is biochemical. The settings on record: for % Inhibition with 100 µM compound (fluorescence assay) / IC50: 10 µM Ac-VEID-AFC; for % Inhibition with 100 µM compound (fluorescence assay): 20 nM Casp6, relative to 1% DMSO control; for fold increase in IC50 (reduction in potency) compared to C13: Casp6-WT; for IC50: fluorescence assay, 20 nM Casp6 active sites, read-out: IC50. As for the experimental part:
To assess the potency of in silico hits, a fluorescence-based Ac-VEID-AFC cleavage assay was used to measure recombinant active Casp6 reaction rate in the absence or presence of 100 µM concentration of compounds. A 30% inhibition cut off was arbitrarily chosen for further investigation of putative inhibitors. […] AFC signal interference by compound intrinsic fluorescence was ruled out (Fig. S4). Casp6 inhibition was confirmed for seven compounds (C7, C13, C14, S2, S10, S11 and S13) using a colorimetric Ac-VEID-pNA cleavage assay (Table 2, Fig. S3).
(§1) Casp6 active sites were quantified using zVAD-FMK (N-benzyloxycarbonyl-Val-Ala-Asp-(O-methyl)-fluoromethylketone, MP Biomedicals, Santa Ana, CA, USA)[51],[64]. Casp6 activity was measured in Stennicke’s buffer (SB: 20 mM piperazine-N,N′-bis-(2-ethanesulfonic acid) pH 7.2, 100 mM NaCl, 10 mM DTT, 1 mM EDTA, 0.1% 3-[(3-cholamidopropyl)-dimethylammonio]-2-hydroxy-1-propanesulfonic acid, 10% sucrose)[65] using 40 µM Ac-VEID-AFC (Ac-Val-Glu-Ile-Asp-7-Amino-4-trifluoromethylcoumarin, Enzo Life Sciences, Farmingdale, NY, USA)[64] and 10-250 nM active site titrated Casp6. Reactions were initiated by Ac-VEID-AFC addition and followed for 20 min at 37 °C in a black clear bottom 96-well microplate (Costar, Corning, NY, USA) in Synergy H4 Hybrid instrument (BioTek, Winooski, VT, USA) with excitation/emission at 380/505 nm. Released AFC was calculated from AFC standard curve (0-25 µM). Casp6 VEIDase activity (released pmol AFC/min) was calculated from the initial linear reaction part. Ac-VEID-AFC hydrolysis initial velocities were measured with 10 nM active-site titrated Casp6 and […] Ac-VEID-AFC. Initial velocities v versus substrate concentration [S] were fit to a rectangular hyperbola using Michaelis-Menten equation in GraphPad Prism 5 (GraphPad Software, La Jolla, CA, USA).
In fluorescence-based Casp6 activity assay, 10 µM Ac-VEID-AFC was added to 20 nM Casp6 in SB with 100 μM compound and 1% dimethyl sulfoxide (DMSO), and reaction rate was measured for 20 min at 37 °C as above. Compound potency was calculated by normalising Ac-VEID-AFC cleavage rate to 1% DMSO control. In colorimetric Casp6 activity assay, 200 µM Ac-VEID-pNA (N-acetyl-Val-Glu-Ile-Asp-p-nitroanilide, Enzo Life Sciences) was added to 200 nM Casp6 in SB with 100 μM compound, and Ac-VEID-pNA cleavage rate was measured at 37 °C for 30 min in clear 96-well plate (Sartstedt, Nümbrecht, Germany) using Synergy H4 plate reader at 405 nm. Absorbance was converted to the released pNA amount based on a standard curve of 0–250 µM pNA. Cleavage rates were calculated from the linear assay phase and were normalised to 1% DMSO control. In Casp6-C163A cleavage assay, 0.5 ng/µl Casp6-WT was preincubated with 100 µM inhibitor, 5 µM Q-VD-OPh or 1% DMSO in SB (30 min, RT), followed by transfer on ice, addition of 0.5 µg/µl Casp6-C163A, and incubation (37 °C, 5, 10 and 15 min). Reactions were stopped by adding SDS-PAGE sample buffer (62.5 mM Tris pH 6.8, 2% SDS, 0.1 M DTT, 0.01% Bromphenol Blue, 10% glycerol) and heating (5 min, 95 °C). Samples (2 µl) were analysed on 15% SDS-PAGE gels, proteins were stained with Coomassie blue, and gels were de-stained with 10% acetic acid. The intensities of protein bands were quantified from scanned gels using ImageJ. The band intensity of Casp6-C163A without a prodomain was plotted against the time and the Casp6-C163A cleavage rates were calculated from the slopes of linear plots. The % activity of Casp6-WT in the presence of inhibitors was calculated relative to DMSO control.
IC50 values were determined against 20 nM Casp6 active sites in fluorescence-based Casp6 activity assay with 10 µM Ac-VEID-AFC and 1 nM-500 µM inhibitor. IC50 was calculated with GraphPad Prism 5 by a nonlinear regression fit for log inhibitor vs relative Casp6 activity (% DMSO control) using a Hill slope of – 1, and top and bottom constraints of 100 and 0, respectively.

A short description of series [2]: Ac-VEID-AFC hydrolysis kinetics of recombinant Casp6 variants (Michaelis-Menten). In kind it is biochemical, human. The settings on record: for Km / kcat: Ac-VEID-AFC hydrolysis, mean ± SD.
Description: In this study, we investigated how naturally occurring rare missense variants of human CASP6 affect Casp6 activity and structure. […] A34, E35, A109, and T182 are not conserved in 12 human caspases and in Casp6 from different species (Fig. 1a,b). Recombinant Casp6-WT and the four variants were expressed in E. coli, purified, and active site titrated (Fig. S2) for functional analyses. Like Casp6-WT, Casp6 variants, underwent complete self-processing at TETD23, and TEVD193 sites, and slight self-cleavage at the DVVD179 site, generating mainly large subunit with a linker (LS-L), small subunit (SS), and a minor amount of large subunit (LS) (Fig. 1c,d).
as §1

Regarding `COC(=O)c1cc(CN)cc(NC(=O)c2ccco2)c1` [Compound C13B], in series [1], the “potency against Casp6 (in words)” value is reported as “low potency” and the “% Inhibition with 100 µM compound (fluorescence assay)” value (from here on “% Inhibition with 100 µM compound”) is 2.3 ± 3.1^a %.

For `COC(=O)c1cc(CNC(=O)c2c(-c3ccccc3)noc2C)cc(NC(=O)c2ccco2)c1` [Compound C13D], in series [1], the “% Inhibition with 100 µM compound” value is listed as 5.5 ± 4.1^a % and the “fold increase in IC50 (reduction in potency) compared to C13” value was found to be 155 fold.

Take `COC(=O)c1cc(CNC(=O)C(C)(C)C)cc(NC(=O)c2ccco2)c1` [Compound C13E]: in series [1], the “potency against Casp6 (in words)” value is listed as “low potency” and the “% Inhibition with 100 µM compound” value was −8.3 ± 1.7^a %.

What is called IC50 is the point on the concentration scale where inhibition reaches its midpoint. In the case of `COC(=O)c1cc(CNC(=O)C2(c3ccc(Cl)cc3)CCC2)cc(NC(=O)c2ccco2)c1` [Compound C13F], in series [1], the “% Inhibition with 100 µM compound” value is recorded as 43.2 ± 10.9^a %, the “fold increase in IC50 (reduction in potency) compared to C13” value was 2 fold and the IC50 came to 27 ± 1.6 µM.

`COC(=O)c1cc(CNC(=O)c2cc(C)cc(C)c2)cc(NC(=O)c2ccco2)c1` [Compound C13G]: in series [1], the “% Inhibition with 100 µM compound” value is recorded as 55.5 ± 8.8^a %, the “fold increase in IC50 (reduction in potency) compared to C13” value amounted to 2 fold and the half-inhibitory concentration (IC50) was found to be 21.5 ± 2 µM. Besides, the “potency for Casp6 of in-house synthesised compound compared to commercial compound” value in series [1] (synthesised in the authors' laboratory vs commercial source) is listed as “lower potency”.

B1: Casp6-L200A: Casp6 L200A alanine mutant from full-length construct, poorly self-processed (protein, UniProt P55212 1-293, looked up, variant L200A)
chain: MSSASGLRRGHPAGGEENMTETDAFYKREMFDPAEKYKMDHRRRGIALIFNHERFFWHLTLPERRGTCADRDNLTRRFSDLGFEVKCFNDLKAEELLLKIHEVSTVSHADADCFVCVFLSHGEGNHIYAYDAKIEIQTLTGLFKGDKCHSLVGKPKIFIIQACRGNQHDVPVIPLDVVDNQTEKLDTNITEVDAASVYTAPAGADFLMCYSVAEGYYSHRETVNGSWYIQDLCEMLGKYGSSLEFTELLTLVNRKVSQRRVDFCKDPSAIGKKQVPCFASMLTKKLHFFPKSN
modifications: full-length
notes: Casp6 L200A alanine mutant from full-length construct, poorly self-processed
Broadly, the Km is the substrate concentration at which the rate is half of its maximum. By kcat is commonly meant the maximal rate divided by the concentration of active sites. Consider B1, for which, in series [2], the “fold higher KM compared to Casp6-WT or Casp6-WT-LS-SS” value turned out to be 10 fold, the “fold reduction in kcat compared to Casp6-WT” value is reported as 45 fold, the Km is 316 ± 162 µM and the kcat was 0.05 ± 0.03 s⁻¹.

B2: Casp6-WT: recombinant wild-type human Casp6 expressed in E. coli from full-length construct (protein, UniProt P55212 1-293, looked up)
chain: MSSASGLRRGHPAGGEENMTETDAFYKREMFDPAEKYKMDHRRRGIALIFNHERFFWHLTLPERRGTCADRDNLTRRFSDLGFEVKCFNDLKAEELLLKIHEVSTVSHADADCFVCVFLSHGEGNHIYAYDAKIEIQTLTGLFKGDKCHSLVGKPKIFIIQACRGNQHDVPVIPLDVVDNQTEKLDTNITEVDAASVYTLPAGADFLMCYSVAEGYYSHRETVNGSWYIQDLCEMLGKYGSSLEFTELLTLVNRKVSQRRVDFCKDPSAIGKKQVPCFASMLTKKLHFFPKSN
modifications: full-length
notes: recombinant wild-type human Casp6 expressed in E. coli from full-length construct
B2: in series [2], the Km came to 31.2 ± 6.7 µM and the kcat turned out to be 2.27 ± 0.30 s⁻¹.

B3: Casp6-K284A-LS-SS: fully processed Casp6 K284A from co-expression of large and small subunits (protein, UniProt P55212 1-293, looked up, variant K284A)
chain: MSSASGLRRGHPAGGEENMTETDAFYKREMFDPAEKYKMDHRRRGIALIFNHERFFWHLTLPERRGTCADRDNLTRRFSDLGFEVKCFNDLKAEELLLKIHEVSTVSHADADCFVCVFLSHGEGNHIYAYDAKIEIQTLTGLFKGDKCHSLVGKPKIFIIQACRGNQHDVPVIPLDVVDNQTEKLDTNITEVDAASVYTLPAGADFLMCYSVAEGYYSHRETVNGSWYIQDLCEMLGKYGSSLEFTELLTLVNRKVSQRRVDFCKDPSAIGKKQVPCFASMLTAKLHFFPKSN
Consider B3, for which, in series [2], the Km came to 27.7 ± 2.7 µM and the turnover number (kcat) stood at 2.8 ± 0.2 s⁻¹.

B4: Casp6-L200A-LS-SS: fully processed Casp6 L200A from co-expression of large and small subunits (protein, UniProt P55212 1-293, looked up, variant L200A)
chain: MSSASGLRRGHPAGGEENMTETDAFYKREMFDPAEKYKMDHRRRGIALIFNHERFFWHLTLPERRGTCADRDNLTRRFSDLGFEVKCFNDLKAEELLLKIHEVSTVSHADADCFVCVFLSHGEGNHIYAYDAKIEIQTLTGLFKGDKCHSLVGKPKIFIIQACRGNQHDVPVIPLDVVDNQTEKLDTNITEVDAASVYTAPAGADFLMCYSVAEGYYSHRETVNGSWYIQDLCEMLGKYGSSLEFTELLTLVNRKVSQRRVDFCKDPSAIGKKQVPCFASMLTKKLHFFPKSN
Turning to B4, in series [2], the “fold higher KM compared to Casp6-WT or Casp6-WT-LS-SS” value amounted to 8 fold, the Km worked out at 196 ± 84.4 µM and the kcat is 2.8 ± 0.8 s⁻¹.

B5: Casp6-E35K: recombinant rare natural human Casp6 missense variant E35K (protein)
chain 1: AFYKREMFDPAKKYKMDHRRRGIALIFNHERFFWHLTLPERRGTCADRDNLTRRFSDLGFEVKCFNDLKAEELLLKIHEVSTVSHADADCFVCVFLSHGEGNHIYAYDAKIEIQTLTGLFKGDKCHSLVGKPKIFIIQACRGNQHDVPVIPLDVVDNQTEKLDTNITEVD
chain 2: AASVYTLPAGADFLMCYSVAEGYYSHRETVNGSWYIQDLCEMLGKYGSSLEFTELLTLVNRKVSQRRVDFCKDPSAIGKKQVPCFASMLTKKLHFFPKSN
modifications: left off: His (from the plasmid name pET23b-Casp6-His), end not stated, state not stated
With B5, in series [2], the “fold reduced catalytic efficiency kcat/KM compared with Casp6-WT” value was ~ 2 fold, the Km was 37.1 ± 4.9 µM and the kcat was determined as 1.71 ± 0.13 s⁻¹.
